Experiments:
[1] = target: the molecule itself; experiment: SEC; S200 SEC of the soluble, purified His-tagged SepSecS samples; tetramer peak at ~70 min, 'early' peak at ~55 min; self-association
[2] = target: the molecule itself; experiment: crystal structure; binary complexes with human tRNASec, sitting drop at +12 °C, sodium cacodylate, lithium citrate, PEG 3,350; trigonal, two SepSecS dimers and one tRNASec in the asymmetric unit
[3] = target: the molecule itself; experiment: crystal structure; holo T325S, sitting drop at +12 °C, lithium citrate and PEG 3,350; orthorhombic, half of the tetramer in the asymmetric unit

B1: human O-phosphoseryl-tRNASec:selenocysteinyl-tRNASec synthase (SepSecS), wild type (enzyme)
chain: MNRESFAAGERLVSPAYVRQGCEARRSHEHLIRLLLEKGKCPENGWDESTLELFLHELAIMDSNNFLGNCGVGEREGRVASALVARRHYRFIHGIGRSGDISAVQPKAAGSSLLNKITNSLVLDIIKLAGVHTVANCFVVPMATGMSLTLCFLTLRHKRPKAKYIIWPRIDQKSCFKSMITAGFEPVVIENVLEGDELRTDLKAVEAKVQELGPDCILCIHSTTSCFAPRVPDRLEELAVICANYDIPHIVNNAYGVQSSKCMHLIQQGARVGRIDAFVQSLDKNFMVPVGGAIIAGFNDSFIQEISKMYPGRASASPSLDVLITLLSLGSNGYKKLLKERKEMFSYLSNQIKKLSEAYNERLLHTPHNPISLAMTLKTLDEHRDKAVTQLGSMLFTRQVSGARVVPLGSMQTVSGYTFRGFMSHTNNYPCAYLNAASAIGMKMQDVDLFIKRLDRCLKAVRKERSKESDDNYDKTEDVDIEEMALKLDNVLLDTYQDASS
notes: human SepSecS (SEPSECS) cloned into pQE80 with an N-terminal His-tag; PLP cofactor covalently attached to Lys284; Band at ~60 kDa on SDS-PAGE; also called WT SepSecS; WT; not shown: His6, N-terminal, kept
stoichiometry N [1]: 4

B2: human SepSecS Tyr334Cys variant (enzyme)
chain: MNRESFAAGERLVSPAYVRQGCEARRSHEHLIRLLLEKGKCPENGWDESTLELFLHELAIMDSNNFLGNCGVGEREGRVASALVARRHYRFIHGIGRSGDISAVQPKAAGSSLLNKITNSLVLDIIKLAGVHTVANCFVVPMATGMSLTLCFLTLRHKRPKAKYIIWPRIDQKSCFKSMITAGFEPVVIENVLEGDELRTDLKAVEAKVQELGPDCILCIHSTTSCFAPRVPDRLEELAVICANYDIPHIVNNAYGVQSSKCMHLIQQGARVGRIDAFVQSLDKNFMVPVGGAIIAGFNDSFIQEISKMYPGRASASPSLDVLITLLSLGSNGCKKLLKERKEMFSYLSNQIKKLSEAYNERLLHTPHNPISLAMTLKTLDEHRDKAVTQLGSMLFTRQVSGARVVPLGSMQTVSGYTFRGFMSHTNNYPCAYLNAASAIGMKMQDVDLFIKRLDRCLKAVRKERSKESDDNYDKTEDVDIEEMALKLDNVLLDTYQDASS
notes: human SepSecS (SEPSECS) in pQE80 with an N-terminal His-tag, pathogenic variant made by site-directed mutagenesis; Mutation found in patients (PCH2D); also called Y334C; Y334C70; not shown: His6, N-terminal, kept
stoichiometry N [2]: 4

B3: human SepSecS Thr325Ser variant (enzyme)
chain: MNRESFAAGERLVSPAYVRQGCEARRSHEHLIRLLLEKGKCPENGWDESTLELFLHELAIMDSNNFLGNCGVGEREGRVASALVARRHYRFIHGIGRSGDISAVQPKAAGSSLLNKITNSLVLDIIKLAGVHTVANCFVVPMATGMSLTLCFLTLRHKRPKAKYIIWPRIDQKSCFKSMITAGFEPVVIENVLEGDELRTDLKAVEAKVQELGPDCILCIHSTTSCFAPRVPDRLEELAVICANYDIPHIVNNAYGVQSSKCMHLIQQGARVGRIDAFVQSLDKNFMVPVGGAIIAGFNDSFIQEISKMYPGRASASPSLDVLISLLSLGSNGYKKLLKERKEMFSYLSNQIKKLSEAYNERLLHTPHNPISLAMTLKTLDEHRDKAVTQLGSMLFTRQVSGARVVPLGSMQTVSGYTFRGFMSHTNNYPCAYLNAASAIGMKMQDVDLFIKRLDRCLKAVRKERSKESDDNYDKTEDVDIEEMALKLDNVLLDTYQDASS
notes: human SepSecS (SEPSECS) in pQE80 with an N-terminal His-tag, pathogenic variant made by site-directed mutagenesis; Mutation found in patients (PCH2D); also called T325S; T325S70; source: E. coli SoluBL21(DE3), purified from the soluble fraction, S200 SEC (70 min and 55 min peaks); not shown: His6, N-terminal, kept
stoichiometry N [3]: 4
